Reference: US20180298070A1, “PEPTIDE COMPOUND” (Takeda Pharmaceutical Company Limited, published 2018)
Non-standard residues stand in square brackets, D forms with d. Groups on a side chain read outwards from the residue. Primed or numbered codes have the meaning given here. No end group written: not given here. *: point of attachment. C20 diacid = O=C(O)CCCCCCCCCCCCCCCCCCC(=O)*; NMeY = CN[C@@H](Cc1ccc(O)cc1)C(=O)O; Stearoyl = CCCCCCCCCCCCCCCCCC(=O)*; αMeF = C[C@](N)(Cc1ccccc1)C(=O)O; dIva = CC[C@@](C)(N)C(=O)O; Iva = CC[C@](C)(N)C(=O)O; PEG2′ = not defined here; Aib = CC(C)(N)C(=O)O

Legend:
[1] = molecular target: T1, human GIPR (human), P48546
T1 chain: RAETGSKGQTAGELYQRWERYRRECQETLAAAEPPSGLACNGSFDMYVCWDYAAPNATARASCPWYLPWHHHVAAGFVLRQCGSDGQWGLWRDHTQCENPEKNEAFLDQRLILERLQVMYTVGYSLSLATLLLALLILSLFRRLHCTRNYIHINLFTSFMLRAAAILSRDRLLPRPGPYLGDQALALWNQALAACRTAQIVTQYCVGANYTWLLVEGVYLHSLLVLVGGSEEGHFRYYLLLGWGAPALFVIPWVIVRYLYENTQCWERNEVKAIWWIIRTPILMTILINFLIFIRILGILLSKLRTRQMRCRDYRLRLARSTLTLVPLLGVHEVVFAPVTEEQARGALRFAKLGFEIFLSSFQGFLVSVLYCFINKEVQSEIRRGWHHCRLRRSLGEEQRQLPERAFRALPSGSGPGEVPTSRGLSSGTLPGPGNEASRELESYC

[2] = molecular target: T2, human GLP-1R (human), P43220
T2 chain: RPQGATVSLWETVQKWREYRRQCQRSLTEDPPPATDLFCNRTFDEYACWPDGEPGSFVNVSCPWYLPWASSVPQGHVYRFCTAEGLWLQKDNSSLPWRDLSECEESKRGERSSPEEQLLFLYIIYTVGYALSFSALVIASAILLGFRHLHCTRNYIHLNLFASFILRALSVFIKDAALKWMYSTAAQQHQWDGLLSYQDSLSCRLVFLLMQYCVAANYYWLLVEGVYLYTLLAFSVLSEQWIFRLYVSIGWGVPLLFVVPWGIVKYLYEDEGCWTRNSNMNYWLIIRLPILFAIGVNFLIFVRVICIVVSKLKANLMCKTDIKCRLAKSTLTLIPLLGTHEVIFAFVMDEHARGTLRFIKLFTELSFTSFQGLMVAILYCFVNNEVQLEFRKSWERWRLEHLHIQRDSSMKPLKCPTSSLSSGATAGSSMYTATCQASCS

In the case of Y[Aib]EGTVVSLYSK([Gly-Gly-Gly-Gly-Stearoyl])[Aib]LDRQAQ[Aib]EFVRWLLAQR (ends and bridges not checked) [Compound 257], the Agonist activity (EC50, M) [1] is reported as 9e-11 M and the Agonist activity (EC50, M) [2] is reported as > 1e-06 M.

With [NMeY][Aib]EGTFISDYSI[dIva]LDR[Aib]AQ[Aib]NFVNW[Iva]LAQRPSSGAPPPSR (ends and bridges not checked) [Compound 85] the Agonist activity (EC50, M) [1] was 1.1e-12 M and the Agonist activity (EC50, M) [2] was > 1e-06 M.

Y[Aib]EGTFISDYSK([PEG2′-pentadecanoyl])ALDRIAQQDFVNWLLAQRPSSGAPPPSR (ends and bridges not checked) [Compound 187] gave an Agonist activity (EC50, M) [1] of 1.2e-11 M.

In the case of [NMeY][Aib]EGTFISDYSIALDR[Aib]AQ[Aib]N[αMeF]VNW[Iva]LAQRPSSGAPPPSR (ends and bridges not checked) [Compound 114], the Agonist activity (EC50, M) [1] is reported as 1e-12 M.

Y[Aib]EGTVVSLYSK([Gly-Gly-Gly-Gly-Stearoyl])[Aib]LDRQAQ[Aib]EFVK(Ac)WLLAQR (ends and bridges not checked) [Compound 261] was tested, and the Agonist activity (EC50, M) [1] was 5.5e-11 M and the Agonist activity (EC50, M) [2] was > 1e-06 M.

With [NMeY][Aib]EGTFISDYSIALDR[Aib]AQQD[αMeF]VNWLLAQRPSSGAPPPSR (not fully specified (C-terminus); ends and bridges not checked) [Compound 73] the Agonist activity (EC50, M) [1] was 1.4e-12 M and the Agonist activity (EC50, M) [2] was > 1e-06 M.

Binder [NMeY][Aib]EGTFISDYSIALDR[Aib]AQ[Aib]NFVNWLLAQRPSSGAPPPSR (ends and bridges not checked) [Compound 82] has an Agonist activity (EC50, M) [1] of 1.4e-12 M and an Agonist activity (EC50, M) [2] of 1e-07 M.

In the case of Me-Y[Aib]EGTFISDYSI[dIva]LDRIAQQDFVNWLLAQRPSSGAPPPSR (not fully specified (residue 1, C-terminus); ends and bridges not checked) [Compound 131], the Agonist activity (EC50, M) [1] is reported as 1.9e-12 M and the Agonist activity (EC50, M) [2] is reported as > 1e-06 M.

With Y[Aib]EGTVVSLYSK([Gly-Gly-Gly-Gly-Stearoyl])[Aib]LDRQAQ[Aib]EFVRWLLAQR (ends and bridges not checked) [Compound 258] the Agonist activity (EC50, M) [1] was 9.2e-11 M and the Agonist activity (EC50, M) [2] was > 1e-06 M.

For [NMeY][Aib]EGTFISDYSIALDR[Aib]AQ[Aib]N[αMeF]VNWLLAQRPSSGAPPPSR (ends and bridges not checked) [Compound 98], the Agonist activity (EC50, M) [1] was 1.4e-12 M and the Agonist activity (EC50, M) [2] was > 1e-06 M.

In the case of [NMeY][Aib]EGTFISDYSIALDRIAQQSFVNW[Iva]LAQRPSSGAPPPSR (not fully specified (N-terminus, C-terminus); ends and bridges not checked) [Compound 67], the Agonist activity (EC50, M) [1] is reported as 1.4e-12 M and the Agonist activity (EC50, M) [2] is reported as > 1e-06 M.

With [NMeY][Aib]EGTFISDYSI[Iva]LDRIAQQD[αMeF]VNWLLAQRPSSGAPPPSR (not fully specified (C-terminus); ends and bridges not checked) [Compound 74] the Agonist activity (EC50, M) [1] was 1.4e-12 M and the Agonist activity (EC50, M) [2] was > 1e-06 M.

For Y[Aib]EGTVVSLYSK([Gly-Gly-Gly-Gly-C20 diacid])[Aib]LDRQAQ[Aib]EFVRWLLAQR (ends and bridges not checked) [Compound 256], the Agonist activity (EC50, M) [1] was 3.1e-10 M and the Agonist activity (EC50, M) [2] was > 1e-06 M.

[NMeY][Aib]EGTFISDYSI[dIva]LDRIAQ[Aib]NFVNWLLAQRPSSGAPPPSR (ends and bridges not checked) [Compound 83] was tested, and the Agonist activity (EC50, M) [1] was 1.7e-12 M and the Agonist activity (EC50, M) [2] was 1.7e-07 M.

With Y[Aib]EGTFISDYSK([PEG(2)-C20 diacid])ALDRIAQQNFVNW[Iva]LAQRPSSGAPPPS (not fully specified (C-terminus); ends and bridges not checked) [Compound 402] the Agonist activity (EC50, M) [1] was 7.8e-11 M and the Agonist activity (EC50, M) [2] was > 1e-06 M.

In the case of [NMeY][Aib]EGTFISDYSI[dIva]LDR[Aib]AQQD[αMeF]VNWLLAQRPSSGAPPPSR (ends and bridges not checked) [Compound 81], the Agonist activity (EC50, M) [1] is reported as 1.5e-12 M and the Agonist activity (EC50, M) [2] is reported as > 1e-06 M.

For [NMeY][Aib]EGTFISDYSI[dIva]LDRIAQQDFVNWLLAQRPSSGAPPPS (ends and bridges not checked) [Compound 63], the Agonist activity (EC50, M) [1] was 1.2e-12 M and the Agonist activity (EC50, M) [2] was > 1e-06 M.

In the case of Y[Aib]EGTVVSLYSK([Gly-Gly-Gly-Gly-C20 diacid])[Aib]LDRQAQ[Aib]EFVK(Ac)WLLAQR (ends and bridges not checked) [Compound 259], the Agonist activity (EC50, M) [1] is reported as 1.2e-10 M and the Agonist activity (EC50, M) [2] is reported as > 1e-06 M.

For Me-Y[Aib]EGTFISDYSIALDR[Aib]AQ[Aib]SFVNW[Iva]LAQRPSSGAPPPSR (not fully specified (residue 1, C-terminus); ends and bridges not checked) [Compound 126], the Agonist activity (EC50, M) [1] was 2.1e-12 M and the Agonist activity (EC50, M) [2] was > 1e-06 M.

For Me-Y[Aib]EGTFISDYSIALDRIAQQSFVNWLLAQRPSSGAPPPS (not fully specified (residue 1, C-terminus); ends and bridges not checked) [Compound 129], the Agonist activity (EC50, M) [1] was 1.7e-12 M and the Agonist activity (EC50, M) [2] was > 1e-06 M.

In the case of Me-Y[Aib]EGTFISDYSIALDRIAQ[Aib]S[αMeF]VNW[Iva]LAQRPSSGAPPPSR (not fully specified (residue 1, C-terminus); ends and bridges not checked) [Compound 125], the Agonist activity (EC50, M) [1] is reported as 1.8e-12 M and the Agonist activity (EC50, M) [2] is reported as > 1e-06 M.

In the case of [NMeY][Aib]EGTFISDYSIALDRIAQ[Aib]DFVNW[Iva]LAQRPSSGAPPPSR (ends and bridges not checked) [Compound 123], the Agonist activity (EC50, M) [1] is reported as 1.3e-12 M and the Agonist activity (EC50, M) [2] is reported as > 1e-06 M.

For Y[Aib]EGTFISDYSK([PEG(2)-C20 diacid])ALDRIAQQNFVNW[Iva]LAQRPSSGAPPPS (not fully specified (C-terminus); ends and bridges not checked) [Compound 406], the Agonist activity (EC50, M) [1] was 3.2e-10 M and the Agonist activity (EC50, M) [2] was > 1e-06 M.

In the case of [NMeY][Aib]EGTFISDYSI[dIva]LDR[dIva]AQ[dIva]NFVNWLLAQRPSSGAPPPSR (not fully specified (N-terminus, C-terminus); ends and bridges not checked) [Compound 103], the Agonist activity (EC50, M) [1] is reported as 1.3e-12 M and the Agonist activity (EC50, M) [2] is reported as > 1e-06 M.

With [NMeY][Aib]EGTFISDYSIALDRIAQQS[αMeF]VNW[Iva]LAQRPSSGAPPPSR (not fully specified (C-terminus); ends and bridges not checked) [Compound 75] the Agonist activity (EC50, M) [1] was 1.4e-12 M and the Agonist activity (EC50, M) [2] was > 1e-06 M.

[NMeY][Aib]EGTFISDYSIALDRIAQ[Aib]N[αMeF]VNW[Iva]LAQRPSSGAPPPSR (not fully specified (C-terminus); ends and bridges not checked) [Compound 76] was tested, and the Agonist activity (EC50, M) [1] was 1.5e-12 M and the Agonist activity (EC50, M) [2] was > 1e-06 M.

In the case of [NMeY][Aib]EGTFISDYSIALDRIAQQSFVNWLLAQRPSSGAPPPSR (ends and bridges not checked) [Compound 60], the Agonist activity (EC50, M) [1] is reported as 1.1e-12 M and the Agonist activity (EC50, M) [2] is reported as > 1e-06 M.

For [NMeY][Aib]EGTFISDYSIALDRIAQQD[αMeF]VNWLLAQRPSSGAPPPS (ends and bridges not checked) [Compound 62], the Agonist activity (EC50, M) [1] was 9.9e-13 M and the Agonist activity (EC50, M) [2] was > 1e-06 M.
